Laboratory results taken from US20260242839A1, “GLYCOSIDE PRODUCT BIOSYNTHESIS AND RECOVERY” (Manus Bio Inc., priority 2023, published 2026).
“And” between values parts separate entries of the source, which are not always exact repeats. Equal values may be shown once.

Columns and labels:
steviol glycoside [1] = assay: steviol glycoside bioconversion by E. coli expressing individual mutations of UGT SEQ ID NO: 15; assay type: cell-based; details: fold improvement of % conversion vs parent UGT SEQ ID NO: 15; stevia leaf extract and glucose fed; 37° C., 48 hr
Description: Fold improvement is with respect to % steviol glycoside conversion of the parent UGT enzyme of SEQ ID NO: 15. SEQ ID NO: 16 has the following mutations from SEQ ID NO: 15: M152A, S153A. Stevia leaf extract and glucose were fed to the bioconversion strains. Bioconversion took place at 37° C. for 48 hr. Data were quantified by reverse phase LC DAD to quantify conversion of steviol glycosides.
(§1) Fold improvement (FI) is with respect to % steviol glycoside conversion.

steviol glycoside [2] = assay: steviol glycoside bioconversion by E. coli expressing individual mutations of UGT SEQ ID NO: 13; assay type: cell-based; details: fold improvement of % conversion vs parent UGT SEQ ID NO: 13; stevia leaf extract and glucose fed; 37° C., 48 hr
Description: A UGT enzyme referred to as MbUGT1,2 is described in U.S. Pat. No. 10,743,567, which is hereby incorporated by reference. An engineered version of MbUGT1,2 (SEQ ID NO: 13) is described in US 2020/0087692, which is hereby incorporated by reference in its entirety. The UGT enzyme of SEQ ID NO: 13 was further engineered to improve activity for steviol glycoside bioconversion. […] Fold improvement is with respect to % steviol glycoside conversion of the parent UGT enzyme (SEQ ID NO: 13). SEQ ID NO: 14 has the following mutations from SEQ ID NO: 13: G5N, F186T, V397S. Stevia leaf extract and glucose were fed to the bioconversion strains. Bioconversion took place at 37° C. for 48 hr. Data were quantified by reverse phase LC DAD to quantify conversion of steviol glycosides.
as §1

B1: K99F: mutation to UGT enzyme of SEQ ID NO: 15 (protein)
chain: MARRTKNSSGMSLAERFWLTLSRSSLVVGRSCVEFEPETVPLLSTLRGKPITFLGLMPPLPEGRREDGEDATVRWLDAQPAKSVVYVALGSEVPLGVEFVHELALGLELAGTRFLWALRKPTGVSDADLLPAGFEERTRGRGVVATRWVPQMSILAHAAVGAFLTHCGWNSTIEGLMFGHPLIMLPITGDQGPNARLIEAKNAGLQVARNDGDGSFDREGVAAAIRAVAVEEESSKVFQEKAKKLQEIVADMACHERYIDGFIQQLRSYKDDSGYSSSYAAAAGMHVVICPWLAFGHLLPCLDLAQRLASRGHRVSFVSTPRNISRLPPVRPALAPLVAFVALPLPRVEGLPDGAESTNDVPHDRPDMVELHRRAFDGLAAPFSEFLGTACADWVIVDSFHHWAAAAALEHKVPCAMMFLGSAEMIASIADERLEHAETESPAAAGQGRPAAAPTFEVARMKLIR
Steviol glycoside [1]
  FI % Stevioside −> rebE: 1.08
  FI % rebA −> rebD: 1.08

B2: S310T: mutation to UGT enzyme of SEQ ID NO: 15 (protein)
chain: MARRTKNSSGMSLAERFWLTLSRSSLVVGRSCVEFEPETVPLLSTLRGKPITFLGLMPPLPEGRREDGEDATVRWLDAQPAKSVVYVALGSEVPLGVEKVHELALGLELAGTRFLWALRKPTGVSDADLLPAGFEERTRGRGVVATRWVPQMSILAHAAVGAFLTHCGWNSTIEGLMFGHPLIMLPITGDQGPNARLIEAKNAGLQVARNDGDGSFDREGVAAAIRAVAVEEESSKVFQEKAKKLQEIVADMACHERYIDGFIQQLRSYKDDSGYSSSYAAAAGMHVVICPWLAFGHLLPCLDLAQRLATRGHRVSFVSTPRNISRLPPVRPALAPLVAFVALPLPRVEGLPDGAESTNDVPHDRPDMVELHRRAFDGLAAPFSEFLGTACADWVIVDSFHHWAAAAALEHKVPCAMMFLGSAEMIASIADERLEHAETESPAAAGQGRPAAAPTFEVARMKLIR
Steviol glycoside [1]
  FI % Stevioside −> rebE: 1.04
  FI % rebA −> rebD: 1.04

B3: K99E: mutation to UGT enzyme of SEQ ID NO: 15 (protein)
chain: MARRTKNSSGMSLAERFWLTLSRSSLVVGRSCVEFEPETVPLLSTLRGKPITFLGLMPPLPEGRREDGEDATVRWLDAQPAKSVVYVALGSEVPLGVEEVHELALGLELAGTRFLWALRKPTGVSDADLLPAGFEERTRGRGVVATRWVPQMSILAHAAVGAFLTHCGWNSTIEGLMFGHPLIMLPITGDQGPNARLIEAKNAGLQVARNDGDGSFDREGVAAAIRAVAVEEESSKVFQEKAKKLQEIVADMACHERYIDGFIQQLRSYKDDSGYSSSYAAAAGMHVVICPWLAFGHLLPCLDLAQRLASRGHRVSFVSTPRNISRLPPVRPALAPLVAFVALPLPRVEGLPDGAESTNDVPHDRPDMVELHRRAFDGLAAPFSEFLGTACADWVIVDSFHHWAAAAALEHKVPCAMMFLGSAEMIASIADERLEHAETESPAAAGQGRPAAAPTFEVARMKLIR
Steviol glycoside [1]
  FI % Stevioside −> rebE: 1.02
  FI % rebA −> rebD: 1.03

B4: A81G: mutation to UGT enzyme of SEQ ID NO: 15 (protein)
chain: MARRTKNSSGMSLAERFWLTLSRSSLVVGRSCVEFEPETVPLLSTLRGKPITFLGLMPPLPEGRREDGEDATVRWLDAQPGKSVVYVALGSEVPLGVEKVHELALGLELAGTRFLWALRKPTGVSDADLLPAGFEERTRGRGVVATRWVPQMSILAHAAVGAFLTHCGWNSTIEGLMFGHPLIMLPITGDQGPNARLIEAKNAGLQVARNDGDGSFDREGVAAAIRAVAVEEESSKVFQEKAKKLQEIVADMACHERYIDGFIQQLRSYKDDSGYSSSYAAAAGMHVVICPWLAFGHLLPCLDLAQRLASRGHRVSFVSTPRNISRLPPVRPALAPLVAFVALPLPRVEGLPDGAESTNDVPHDRPDMVELHRRAFDGLAAPFSEFLGTACADWVIVDSFHHWAAAAALEHKVPCAMMFLGSAEMIASIADERLEHAETESPAAAGQGRPAAAPTFEVARMKLIR
Steviol glycoside [1]
  FI % Stevioside −> rebE: 1.09
  FI % rebA −> rebD: 1.04

B5: L205Y: mutation to UGT enzyme of SEQ ID NO: 15 (protein)
chain: MARRTKNSSGMSLAERFWLTLSRSSLVVGRSCVEFEPETVPLLSTLRGKPITFLGLMPPLPEGRREDGEDATVRWLDAQPAKSVVYVALGSEVPLGVEKVHELALGLELAGTRFLWALRKPTGVSDADLLPAGFEERTRGRGVVATRWVPQMSILAHAAVGAFLTHCGWNSTIEGLMFGHPLIMLPITGDQGPNARLIEAKNAGYQVARNDGDGSFDREGVAAAIRAVAVEEESSKVFQEKAKKLQEIVADMACHERYIDGFIQQLRSYKDDSGYSSSYAAAAGMHVVICPWLAFGHLLPCLDLAQRLASRGHRVSFVSTPRNISRLPPVRPALAPLVAFVALPLPRVEGLPDGAESTNDVPHDRPDMVELHRRAFDGLAAPFSEFLGTACADWVIVDSFHHWAAAAALEHKVPCAMMFLGSAEMIASIADERLEHAETESPAAAGQGRPAAAPTFEVARMKLIR
Steviol glycoside [1]
  FI % Stevioside −> rebE: 1.03
  FI % rebA −> rebD: 1.04

B6: A81K: mutation to UGT enzyme of SEQ ID NO: 15 (protein)
chain: MARRTKNSSGMSLAERFWLTLSRSSLVVGRSCVEFEPETVPLLSTLRGKPITFLGLMPPLPEGRREDGEDATVRWLDAQPKKSVVYVALGSEVPLGVEKVHELALGLELAGTRFLWALRKPTGVSDADLLPAGFEERTRGRGVVATRWVPQMSILAHAAVGAFLTHCGWNSTIEGLMFGHPLIMLPITGDQGPNARLIEAKNAGLQVARNDGDGSFDREGVAAAIRAVAVEEESSKVFQEKAKKLQEIVADMACHERYIDGFIQQLRSYKDDSGYSSSYAAAAGMHVVICPWLAFGHLLPCLDLAQRLASRGHRVSFVSTPRNISRLPPVRPALAPLVAFVALPLPRVEGLPDGAESTNDVPHDRPDMVELHRRAFDGLAAPFSEFLGTACADWVIVDSFHHWAAAAALEHKVPCAMMFLGSAEMIASIADERLEHAETESPAAAGQGRPAAAPTFEVARMKLIR
Steviol glycoside [1]
  FI % Stevioside −> rebE: 1.02 and 1.01
  FI % rebA −> rebD: 1.04 and 1.02

B7: G189Y: mutation to UGT enzyme of SEQ ID NO: 15 (protein)
chain: MARRTKNSSGMSLAERFWLTLSRSSLVVGRSCVEFEPETVPLLSTLRGKPITFLGLMPPLPEGRREDGEDATVRWLDAQPAKSVVYVALGSEVPLGVEKVHELALGLELAGTRFLWALRKPTGVSDADLLPAGFEERTRGRGVVATRWVPQMSILAHAAVGAFLTHCGWNSTIEGLMFGHPLIMLPITYDQGPNARLIEAKNAGLQVARNDGDGSFDREGVAAAIRAVAVEEESSKVFQEKAKKLQEIVADMACHERYIDGFIQQLRSYKDDSGYSSSYAAAAGMHVVICPWLAFGHLLPCLDLAQRLASRGHRVSFVSTPRNISRLPPVRPALAPLVAFVALPLPRVEGLPDGAESTNDVPHDRPDMVELHRRAFDGLAAPFSEFLGTACADWVIVDSFHHWAAAAALEHKVPCAMMFLGSAEMIASIADERLEHAETESPAAAGQGRPAAAPTFEVARMKLIR
Steviol glycoside [1]
  FI % Stevioside −> rebE: 1.04
  FI % rebA −> rebD: 1.04

B8: S20E: mutation to UGT enzyme of SEQ ID NO: 13 (protein)
chain: MATKGSSGMSLAERFWLTLERSSLVVGRSCVEFEPETVPLLSTLRGKPITFLGLMPPLHEGRREDGEDATVRWLDAQPAKSVVYVALGSEVPLGVEKVHELALGLELAGTRFLWALRKPTGVSDADLLPAGFEERTRGRGVVATRWVPQMSILAHAAVGAFLTHCGWNSTIEGLMFGHPLIMLPIFGDQGPNARLIEAKNAGLQVARNDGDGSFDREGVAAAIRAVAVEEESSKVFQAKAKKLQEIVADMACHERYIDGFIQQLRSYKDDSGYSSSYAAAAGMHVVICPWLAFGHLLPCLDLAQRLASRGHRVSFVSTPRNISRLPPVRPALAPLVAFVALPLPRVEGLPDGAESTNDVPHDRPDMVELHRRAFDGLAAPFSEFLGTACADWVIVDVFHHWAAAAALEHKVPCAMMLLGSAEMIASIADERLEHAETESPAAAGQGRPAAAPTFEVARMKLIR
Steviol glycoside [2]
  FI %Stevioside→rebE: 1.2
  FI %rebA→rebD: 1.1

B9: M55L: mutation to UGT enzyme of SEQ ID NO: 13 (protein)
chain: MATKGSSGMSLAERFWLTLSRSSLVVGRSCVEFEPETVPLLSTLRGKPITFLGLLPPLHEGRREDGEDATVRWLDAQPAKSVVYVALGSEVPLGVEKVHELALGLELAGTRFLWALRKPTGVSDADLLPAGFEERTRGRGVVATRWVPQMSILAHAAVGAFLTHCGWNSTIEGLMFGHPLIMLPIFGDQGPNARLIEAKNAGLQVARNDGDGSFDREGVAAAIRAVAVEEESSKVFQAKAKKLQEIVADMACHERYIDGFIQQLRSYKDDSGYSSSYAAAAGMHVVICPWLAFGHLLPCLDLAQRLASRGHRVSFVSTPRNISRLPPVRPALAPLVAFVALPLPRVEGLPDGAESTNDVPHDRPDMVELHRRAFDGLAAPFSEFLGTACADWVIVDVFHHWAAAAALEHKVPCAMMLLGSAEMIASIADERLEHAETESPAAAGQGRPAAAPTFEVARMKLIR
Steviol glycoside [2]
  FI %Stevioside→rebE: 1.1
  FI %rebA→rebD: 1.0
